These are literature values, as cited in paper PMC4203807.

The series deals with clathrin heavy chain N-terminal domain (Rattus norvegicus) (UniProt P11442).
UniProt P11442, sequence (P11442 1-363): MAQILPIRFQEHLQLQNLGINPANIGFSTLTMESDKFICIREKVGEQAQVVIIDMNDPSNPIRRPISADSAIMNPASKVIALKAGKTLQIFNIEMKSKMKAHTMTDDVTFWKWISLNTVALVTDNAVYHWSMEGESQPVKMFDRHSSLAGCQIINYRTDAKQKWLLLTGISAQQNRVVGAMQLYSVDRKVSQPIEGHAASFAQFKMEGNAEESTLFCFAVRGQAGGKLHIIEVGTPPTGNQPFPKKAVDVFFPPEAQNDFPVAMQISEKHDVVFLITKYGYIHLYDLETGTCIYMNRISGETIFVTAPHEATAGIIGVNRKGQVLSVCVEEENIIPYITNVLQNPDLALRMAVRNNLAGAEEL

Take AP180 623-680 (from UniProt Q05140): the Kd was 250 µM.
